Assay results reported in the supplement of paper PMC10567573.

B1: WDFY1 (parent)
chain: LLIPKEDGVITASEDRTIRVWLKR

Variants of: B1
Assay: protein stability index of a GFP-peptide fusion (GPS, HEK-293T) (PSI 1-6); higher = more stable
Conditions: c terminus: a fixed tail appended
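Further: lentivirally expressed fusions sorted by FACS into six bins by GFP to DsRed ratio, PSI derived from sequencing read proportions per bin multiplied by bin number.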

Row | Variant | protein stability index
1 | KLIPKEDGVITASEDRTIRVWLKR [L1K] | 2.74
2 | DLIPKEDGVITASEDRTIRVWLKR [L1D] | 3.54
3 | QLIPKEDGVITASEDRTIRVWLKR [L1Q] | 2.94
4 | ILIPKEDGVITASEDRTIRVWLKR [L1I] | 2.1
5 | ELIPKEDGVITASEDRTIRVWLKR [L1E] | 3.2
6 | NLIPKEDGVITASEDRTIRVWLKR [L1N] | 3.1
7 | SLIPKEDGVITASEDRTIRVWLKR [L1S] | 2.93
8 | RLIPKEDGVITASEDRTIRVWLKR [L1R] | 2.73
9 | WLIPKEDGVITASEDRTIRVWLKR [L1W] | 1.73
10 | ALIPKEDGVITASEDRTIRVWLKR [L1A] | 2.5
11 | PLIPKEDGVITASEDRTIRVWLKR [L1P] | 4.03
12 | YLIPKEDGVITASEDRTIRVWLKR [L1Y] | 2.55
13 | CLIPKEDGVITASEDRTIRVWLKR [L1C] | 2.35
14 | TLIPKEDGVITASEDRTIRVWLKR [L1T] | 3.62
15 | LLIPKLDGVITASEDRTIRVWLKR [E6L] | 3.18
16 | LLIPKADGVITASEDRTIRVWLKR [E6A] | 2.59
17 | LLIPKPDGVITASEDRTIRVWLKR [E6P] | 2.43
18 | LLIPKMDGVITASEDRTIRVWLKR [E6M] | 2.65
19 | LLIPKKDGVITASEDRTIRVWLKR [E6K] | 2.18
20 | LLIPKNDGVITASEDRTIRVWLKR [E6N] | 2.58
21 | LLIPKIDGVITASEDRTIRVWLKR [E6I] | 1.98
22 | LLIPKDDGVITASEDRTIRVWLKR [E6D] | 2.82
23 | LLIPKGDGVITASEDRTIRVWLKR [E6G] | 2.56
24 | LLIPKFDGVITASEDRTIRVWLKR [E6F] | 2.25

Row | Variant | protein stability index
25 | LLIPKHDGVITASEDRTIRVWLKR [E6H] | 2.67
26 | LLIPKCDGVITASEDRTIRVWLKR [E6C] | 2.67
27 | LLICKEDGVITASEDRTIRVWLKR [P4C] | 2.28
28 | LLIHKEDGVITASEDRTIRVWLKR [P4H] | 1.75
29 | LLILKEDGVITASEDRTIRVWLKR [P4L] | 1.79
30 | LLIVKEDGVITASEDRTIRVWLKR [P4V] | 2.67
31 | LLIMKEDGVITASEDRTIRVWLKR [P4M] | 1.88
32 | LLITKEDGVITASEDRTIRVWLKR [P4T] | 1.89
33 | LLIFKEDGVITASEDRTIRVWLKR [P4F] | 2.78
34 | LLIIKEDGVITASEDRTIRVWLKR [P4I] | 1.52
35 | LLIWKEDGVITASEDRTIRVWLKR [P4W] | 2.35
36 | LLIAKEDGVITASEDRTIRVWLKR [P4A] | 2.13
37 | LLIGKEDGVITASEDRTIRVWLKR [P4G] | 1.74
38 | LLINKEDGVITASEDRTIRVWLKR [P4N] | 2.19
39 | LLIRKEDGVITASEDRTIRVWLKR [P4R] | 2.46
40 | LLIDKEDGVITASEDRTIRVWLKR [P4D] | 2.82
41 | LLIYKEDGVITASEDRTIRVWLKR [P4Y] | 1.51
42 | LLISKEDGVITASEDRTIRVWLKR [P4S] | 2.54
43 | LLIQKEDGVITASEDRTIRVWLKR [P4Q] | 1.5
44 | LLIPEEDGVITASEDRTIRVWLKR [K5E] | 1.58
45 | LLIPCEDGVITASEDRTIRVWLKR [K5C] | 2.26
46 | LLIPWEDGVITASEDRTIRVWLKR [K5W] | 1.41
47 | LLIPLEDGVITASEDRTIRVWLKR [K5L] | 1.36
48 | LLIPDEDGVITASEDRTIRVWLKR [K5D] | 2.41

Row | Variant | protein stability index
49 | LLIPYEDGVITASEDRTIRVWLKR [K5Y] | 2.91
50 | LLIPFEDGVITASEDRTIRVWLKR [K5F] | 1.4
51 | LLIPAEDGVITASEDRTIRVWLKR [K5A] | 2.13
52 | LLIPTEDGVITASEDRTIRVWLKR [K5T] | 1.62
53 | LLIPNEDGVITASEDRTIRVWLKR [K5N] | 2.15
54 | LLIPREDGVITASEDRTIRVWLKR [K5R] | 1.44
55 | LLIPQEDGVITASEDRTIRVWLKR [K5Q] | 1.57
56 | LLIPSEDGVITASEDRTIRVWLKR [K5S] | 1.2
57 | LLIPGEDGVITASEDRTIRVWLKR [K5G] | 3.24
58 | LLIPHEDGVITASEDRTIRVWLKR [K5H] | 1.65
59 | LLIPIEDGVITASEDRTIRVWLKR [K5I] | 2.28
60 | LHIPKEDGVITASEDRTIRVWLKR [L2H] | 1.68
61 | LYIPKEDGVITASEDRTIRVWLKR [L2Y] | 1.82
62 | LFIPKEDGVITASEDRTIRVWLKR [L2F] | 1.25
63 | LGIPKEDGVITASEDRTIRVWLKR [L2G] | 2.37
64 | LPIPKEDGVITASEDRTIRVWLKR [L2P] | 2.66
65 | LAIPKEDGVITASEDRTIRVWLKR [L2A] | 2.88
66 | LWIPKEDGVITASEDRTIRVWLKR [L2W] | 1.76
67 | LEIPKEDGVITASEDRTIRVWLKR [L2E] | 3.8
68 | LNIPKEDGVITASEDRTIRVWLKR [L2N] | 2.77
69 | LMIPKEDGVITASEDRTIRVWLKR [L2M] | 2.27
70 | LSIPKEDGVITASEDRTIRVWLKR [L2S] | 2.78
71 | LCIPKEDGVITASEDRTIRVWLKR [L2C] | 2.5
72 | LVIPKEDGVITASEDRTIRVWLKR [L2V] | 2.69

Row | Variant | protein stability index
73 | LKIPKEDGVITASEDRTIRVWLKR [L2K] | 3.31
74 | LDIPKEDGVITASEDRTIRVWLKR [L2D] | 3.47
75 | LQIPKEDGVITASEDRTIRVWLKR [L2Q] | 3.1
76 | LRIPKEDGVITASEDRTIRVWLKR [L2R] | 1.93
77 | LTIPKEDGVITASEDRTIRVWLKR [L2T] | 2.08
78 | LIIPKEDGVITASEDRTIRVWLKR [L2I] | 2.22
79 | LLQPKEDGVITASEDRTIRVWLKR [I3Q] | 2.66
80 | LLGPKEDGVITASEDRTIRVWLKR [I3G] | 2.97
81 | LLLPKEDGVITASEDRTIRVWLKR [I3L] | 2.76
82 | LLAPKEDGVITASEDRTIRVWLKR [I3A] | 3.62
83 | LLFPKEDGVITASEDRTIRVWLKR [I3F] | 2.04
84 | LLTPKEDGVITASEDRTIRVWLKR [I3T] | 2.91
85 | LLMPKEDGVITASEDRTIRVWLKR [I3M] | 1.95
86 | LLEPKEDGVITASEDRTIRVWLKR [I3E] | 3.36
87 | LLCPKEDGVITASEDRTIRVWLKR [I3C] | 2.24
88 | LLDPKEDGVITASEDRTIRVWLKR [I3D] | 3.09
89 | LLRPKEDGVITASEDRTIRVWLKR [I3R] | 2.71
90 | LLWPKEDGVITASEDRTIRVWLKR [I3W] | 1.87
91 | LLKPKEDGVITASEDRTIRVWLKR [I3K] | 3.17
92 | LLYPKEDGVITASEDRTIRVWLKR [I3Y] | 1.89
93 | LLNPKEDGVITASEDRTIRVWLKR [I3N] | 3.77
94 | LLHPKEDGVITASEDRTIRVWLKR [I3H] | 2.45
